Consider one molecule from patent US20210379147A1, “METHOD AND SYSTEM FOR TREATING CANCER UTILIZING TINAGL1” (The Trustees of Princeton University, priority 2018, published 2021).

Data set [1] relates to primary tumors and lung lesions. The data set can be described thus: IHC staining of primary tumors and lung samples for proliferation and apoptosis markers. Type of data set: in vivo, mice. As to conditions: versus PBS. From the text:
FIGS. 7A-7D are graphs indicating the percentage of Ki67^+ (FIGS. 7A and 7B) and cleaved caspase-3^+ (FIGS. 7C, 7D) cells counted in primary tumor (FIGS. 7A, 7C) and spontaneous lung metastasis (FIGS. 7B, 7D) samples from mice treated with r-Tinagl1(711, 721, 731, 741) or PBS (710, 720, 730, 740) collected for H&E and IHC staining with indicated antibodies.
To address how Tinagl1 inhibits primary tumor growth and metastasis, primary tumors and corresponding lung samples were stained for proliferation and apoptosis markers. […] Consistent results were also observed in the staining of the tissues collected from the mice injected with the SUM159-M1a cells.
TIC staining was performed as previously described (Wan et al., 2014). Briefly, Paraffin-embedded primary tumor or lung samples were sliced into 4 μm thickness. The slides were baked overnight at 60° C. Next, the tissue slides were washed with PBS after deparaffinization and hydration and then boiled in citrate buffer at 100° C. for 40 min. After treated with 3% H2O2 for 30 min to block endogenous peroxidase, slides were incubated at 4° C. overnight with Ki67 (Leica Biosystem, Ki67-MM1-L-CE-S), cleaved caspase-3 (Cell signaling, 9661S), p-EGFR (Cell signaling, 3777), p-FAK (Cell signaling, 8556), CD31 (Cell signaling, 77699), -SMA (Sigma, A5228), or Tinagl1 (Sigma, HPA048695) antibodies. […]

The nature of data set [2]: Toxicity assessment in r-Tinagl1 treated mice (body weight, CBC, H&E and Alcian blue staining, ALT, AST). As to conditions: ALT and AST activity. Type of data set: in vivo. From the text: (§1) To test if recombinant Tinagl1 protein (r-Tiangl1) treatment would slow tumor progression, full length recombinant human Tinagl1 with 6×His tag at the C-terminus (r-Tinagl1) was expressed in HEK293T cells and r-Tinagl1 was purified from the culture media using Ni^2+-NTA purification system. r-Tinagl1 was used to treat orthotopically implanted mammary tumors.

In data set [3] the test system is orthotopically implanted mammary tumors. The data set can be described thus: r-Tinagl1 treatment of orthotopically implanted mammary tumors. The format is in vivo, mice. As to conditions: continuous treatment of r-Tinagl1 for 7 weeks.
Excerpt: as §1
For xenograft studies, 8-weeks immunocompromised NOD Scid Gamma (NSG) or immunocompetent FVB females were used. Cells were suspended in 10 μl of PBS for mammary gland injection (MFP), or were suspended in 100 μl of PBS for intravenous injection. For human patient-derived xenograft (PDX, HCL001, kindly provided by Dr. Alana Welm) study, we followed the standard protocol for PDX transplantation, maintenance and digestion of the tumors (DeRose et al., 2011). 2×10^4 cells were suspended in 10 μl of PBS and subjected to MFP injection. […] Primary tumors were quantified once per week via caliper measurement. All cell lines used for lung metastasis experiments were stably labeled with a firefly luciferase expressing vector and were monitored by weekly bioluminescent imaging (BLI). At protocol-defined endpoints, lungs were dissected and fixed in bouin's solution and the metastatic lesions were counted.

Another data set deals with T1, EGFR dimerization (Homo sapiens, UniProt P00533).
T1 construct: host or cells: LM2
The data set can be described thus: EGFR dimerization in LM2 cells (co-IP of EGFR-GFP/EGFR-Myc; DSS cross-linking). Particulars: 1 μg/ml r-Tinagl1 1 hr. The format is cell-based. The method, then: FIG. 14A is an image of WB analyses where LM2 cells were transfected with plasmids to overexpress GFP-EGFR and EGFR-Myc. 48 hr after transfection, the cells were treated with or without 1 μg/ml of r-Tinagl1 for 1 hr, followed by 10 min of 1 ng/ml EGF treatment, then collected and immunoprecipitated with either IgG or anti-Myc antibody, after which the IP samples were subjected to WB analysis.
FIG. 14B is a graph illustrating the quantified amount of EGFR-GFP that interacts with EGFR-Myc, normalized to PBS treatment group.
FIG. 14C is an image of WB analyses where LM2 cells stably expressed EGFR-Myc were pretreated with PBS or 1 μg/ml of r-Tinagl1 for 1 hr, treated with 1 ng/ml of EGF for another 10 min, then cells were collected and the dimers were cross-linked with disuccinimidyl suberate (DSS) treatment, followed by WB analysis.
FIG. 14D is a graph illustrating the ratio of dimerized EGFR in each treatment group that was quantified.
Whether Tinagl1 prevents EGFR dimerization independent of interfering with EGF binding to EGFR was tested. […] To further validate this conclusion, LM2 cells with EGFR-Myc stably expressed were treated with EGF or r-Tinagl1 alone or combination. […]
The assay was performed as previously described (Wang et al., 2015). […] Finally, the cells were then lysed with IP lysis buffer for 20 min on ice, and EGFR dimerization was analyzed by WB.

In a further data set the target is T2, Tinagl1-EGFR interaction (Homo sapiens, UniProt P00533).
T2 construct: host or cells: HEK293T
The data set can be described thus: Competition IP for Tinagl1-HA / GFP-EGFR interaction in HEK293T lysate. Type of data set: binding.

The test system of another data set is EGFR and FAK pathways. The data set can be described thus: EGFR and FAK pathway activation in SUM159-M1a cells on FN (WB, FIG. 12). Type of data set: cell-based, human. The method, then:
FIG. 12 is an image of WB analyses where a 6-well plate was coated with 10 μg/ml of FN or 10 μg/ml of FN+r-Tinagl1, then SUM159-M1a cells were serum starved for 24 hr, and then seeded on the plate with the media contain 10% FBS and 1 ng/ml of EGF, and then 3 hr after seeding, the cells were treated with […] FAK inhibitor 14 (FAKi) for 2 hr, followed by 1 hr treatment of 100 nM Erlotinib (Erlo), 1 μg/ml r-Tinagl1 alone or combined, and finally the cells were treated with 1 ng/ml of EGF for another 10 min, and then collected for WB analysis.
Furthermore, p-AKT and p-ERK levels were lowered in r-Tinagl1 treated samples that samples treated with either FAK inhibitor 14 (FAKi) and or EGFR inhibitor Erlotinib (Erlo) alone.

Experimental for Tinagl1-EGFR interaction: FIG. 13C is an image of IP and WB assays where HEK293T cells co-expressing Tinagl1-HA and GFP-EGFR were lysed and divided into multiple groups, then PBS or indicated amount of proteins was added into each group, then IP followed by WB assays were performed.
FIG. 13D is a graph quantifying the ability of the indicated protein to compete with Tinagl1-EGFR interaction, by measuring GFP-EGFR level in the groups from FIG. 13C.
Whether Tinagl1 inhibits EGFR activation in a similar manner was tested. […] Whether Tinagl1 and EGF compete with each other to interact with EGFR was tested.

B1: r-Tinagl1: full length recombinant human Tinagl1 with 6×His tag at the C-terminus [SEQ ID NO.: 24], expressed in HEK293T cells (protein, listed as Homo sapiens)
chain: MWRCPLGLLLLLPLAGHLALGAQQGRGRRELAPGLHLRGIRDAGGRYCQEQDLCCRGRADDCALPYLGAICYCDLFCNRTVSDCCPDFWDFCLGVPPPFPPIQGCMHGGRIYPVLGTYWDNCNRCTCQENRQWQCDQEPCLVDPDMIKAINQGNYGWQAGNHSAFWGMTLDEGIRYRLGTIRPSSSVMNMHEIYTVLNPGEVLPTAFEASEKWPNLIHEPLDQGNCAGSWAFSTAAVASDRVSIHSLGHMTPVLSPQNLLSCDTHQQQGCRGGRLDGAWWFLRRRGVVSDHCYPFSGRERDEAGPAPPCMMHSRAMGRGKRQATAHCPNSYVNNNDIYQVTPVYRLGSNDKEIMKELMENGPVQALMEVHEDFFLYKGGIYSHTPVSLGRPERYRRHGTHSVKITGWGEETLPDGRTLKYWTAANSWGPAWGERGHFRIVRGVNECDIESFVLGVWGRVGMEDMGHHVDHHHHHH
modifications: C-terminal 6xHis tag
Consider B1, for which, in data set [1], the “Ki67+ cells” value is “significantly fewer” and the “cleaved caspase-3+ apoptotic cells” value is “no difference”. The “hematologic, GI tract, and liver toxicity” value in data set [2] was “no significant hematologic, GI tract, and liver toxicity”. The “hematologic, GI tract, and liver toxicity” value in data set [2] (listed as recombinant Tinagl1 protein) is given as “without causing significant toxicity”. Moreover, in data set [3], the primary tumor growth entry is recorded as “significantly inhibited” and the spontaneous lung metastasis entry is listed as “significantly inhibited”. For the same molecule, in the data set with EGFR dimerization (in the presence of EGF), the “amount of EGFR-GFP bound by EGFR-Myc” value is given as “significantly reduced the amount of EGFR-GFP bound by EGFR-Myc”. Moreover, the “dimer form of EGFR (DSS cross-linking)” value in the data set with EGFR dimerization (then EGF) is “reduced”. Further, the “competition with Tinagl1-HA to interact with EGFR” value with Tinagl1-EGFR interaction is “competed”. Further, the “activation of EGFR and FAK pathways (p-EGFR, p-FAK, p-ERK, p-AKT)” value with EGFR and FAK pathways (1 μg/ml r-Tinagl1, 1 hr) is “inhibited the activation of both EGFR and FAK pathways”. For the same molecule, the “p-AKT and p-ERK levels versus FAKi or Erlo alone” value in the data set on EGFR and FAK pathways (FAKi, 100 nM Erlo, 1 μg/ml r-Tinagl1) was “lowered”.
